Results published in patent US20230167458A1, “FORSKOLIN-INDUCIBLE PROMOTERS AND HYPOXIA-INDUCIBLE PROMOTERS” (ASKLEPIOS BIOPHARMACEUTICAL, INC., priority 2020, published 2023).

Tests used:
HEK293-T = assay: Luciferase expression in normoxia vs 24 h hypoxia, transiently transfected HEK293-T; format: cell-based, human; settings: for relative rank of promoter strength: 24 h hypoxia vs 24 h normoxia
Description: HEK293-T are seeded at a density of 20%. Once they reached a confluence between 60 and 80%, the media is changed with DMEM (#21885-025—Thermo Scientific) supplemented with 10% FBS (Gibco, 26140). After 3 hours, the cells were transfected by a transfection mix. The transfection mix is prepared by adding DNA ([…] per 6 well plate) and PEI 25 kDA (#23966-1—Polyscience) in a ratio of 1:3 in sterile DPBS (#14190169—ThermoFisher Scientific). After mixing, the transfection mix is incubated at room temperature for 30 minutes and then added directly to the cells. After 16 to 18 h post transfection, the media is changed to DMEM+2% FBS. The transfected DNA was one of the vectors where the promoter constructs (RTV-015, HYBT, RTV-016, HV3C) or a control promoter (CMV-IE) were used to drive luciferase expression and β-galactosidase containing pcDNA6 plasmid. The β-galactosidase containing plasmid was used as internal control for transfection efficiency (Thermofisher, V22020).
After transfection the cells were incubated for 24 hrs in normoxic conditions (20% oxygen). Induction of the promoters was assessed by using luciferase activity after 24 hrs in normoxia or hypoxia (5% oxygen, 10% carbon dioxide and 85% nitrogen). Hypoxia was achieved by gas displacement in a sealed hypoxia chamber.
Luciferase activity was measured using LARII (Dual Luciferase Reporter 1000 assay system, Promega, E1980).
Media was removed from the cells at the respective time point (0, 3, 5, 24 hrs after induction). The cells were washed once in 300 μl of DPBS. Cells were lysed by adding 100 μl of passive lysis buffer to the cells and incubation with rocking for 15 minutes. The cell debris was pelleted by centrifugation of the plate at max speed in a benchtop centrifuge for 1 min. 10 μl of supernatant was pipetted into white 96-well plate and luminescence measured by addition of 50 μl of LARII substrate.
β-galactosidase activity was measured as per manufacturer's instructions (Mammalian βGalactosidase Assay Kit, 75707/75710, Thermo Scientific) using 25 μl of lysate. 25 μl of lysate was transferred into a microplate well and mixed with 25 μl of β-galactosidase Assay Reagent, equilibrated to room temperature. The mixture was incubated at 37° C. for 30 min and absorbance measured at 405 nm.
Luciferase readouts were normalised to β-galactosidase to produce normalised relative luminometer units (RLUs).

CHO-GSK1SV cell line = assay: SEAP expression and cell number in normoxia vs 24 h hypoxia, stably transfected CHO-GS-KSV1; format: cell-based, chinese hamster; settings: stably integrated CHO-GSK1SV
Description: Cell suspensions of 6×10^5 cells per mL are incubated on an orbital shaker set at 8% CO2, 20% O2, 37° C., 85% relative humidity and 140 rpm overnight. 2.86×10^7 cells were centrifuged at 200 g for 3 minutes. Media is then aspirated and cell pellet resuspended in 2 mL fresh CD-CHO media to obtain a concentration of 1.43×10^7 cells per mL. 700 μL of cell suspension was added to each of two electroporation cuvettes each containing […] of linearised DNA in 100 μL of sterile TE buffer (Thermofisher, 12090015). Each cuvette was electroporated, delivering a single pulse of 300V, […] with resistance to infinity. Immediately after delivery of pulse electroplated cells were transferred to Erlenmeyer 125 mL flask containing 20 mL of CD-CHO media pre-warmed to 37° C. Electroporated cells from two cuvettes are combined into a single 125 mL flask to generate one pool of cells. Cells are cultured on an orbital shaker set at 8% CO2, 20% 02, 37° C., 85% relative humidity and 140 rpm. Cells are transferred to fresh CD-CHO media 24 hours after transfection and cell cultures monitored and given fresh CD-CHO media every 2-4 days. Usually after about 10-14 days cell numbers will be high enough to start passaging. Cells were selected at 14 days and then expanded. Induction was performed once doubling time had returned to approx. 24 hrs. The cells assayed in this example were at passage number 15, 17, 19 and 21.
The transfected DNA was pXC-17.4 expression vector (Lonza Biologics plc) where one of the promoter constructs (RTV-015, HYBT, RTV-016, HV3C) or a control promoter (CMV-IE) have been cloned upstream of the SEAP gene, which had been cloned into the multiple cloning site within the vector expression cassette. Promoters were closed into the pXC-17.4 vector using Gibson assembly. The pXC-17.4 expression vector is designed for making stable cell lines in the CHO-GSK1SV cell line as it contains the […] gene which has been knocked out of the cell line. Therefore, selection of cells in glutamine drop-out medium will select for cells that have stably integrated the plasmid.
Stably transfected CHO-GS cells were seeded at 500,000 cells/ml and allowed to grow for 24 hrs, at this point the cells were counted and placed under hypoxic conditions as previously described. After 24 hrs, the cell numbers and the expression of SEAP was measured.
SEAP Reporter Gene Assay, chemiluminescent (Roche, CAT #11 779 842 001) was used to measured SEAP activity as per manufacturers protocol. All reagents and samples were fully pre-equilibrated at room temperature. Culture supernatant was collected from the stably transfected CHO-GS at the specific time points (0 h and 24 h). The supernatant was diluted 1:4 in dilution buffer and heat treated at 65° C. for 30 minutes. The heat-treated sample was then centrifuged for 30 s at maximum speed. 50 μl of the heat-treated sample was then added to 5 μl of inactivation buffer and incubated for 5 min at room temperature. 50 μl of substrate reagent was then added and incubated for 10 min at room temperature. The signal is then read at 477 nm and compared to a calibration curve. SEAP expression was normalized against cell number to ensure that the increase in activity was not due to increased cell numbers and was true induction. The result of this experiment can be seen in FIG. 16 and FIG. 17.

B1: HV3C: synthetic hypoxia-inducible promoter, SEQ ID NO: 85/87; 4 HRE3 elements and CMV minimal promoter (nucleic acid)
DNA: GATCTTTGTATTTAATTAAGACCTTGAGTACGTGCGTCTCTGCACGTATGGCGATTAAGACCTTGAGTACGTGCGTCTCTGCACGTATGGCGATTAAGACCTTGAGTACGTGCGTCTCTGCACGTATGGCGATTAAGACCTTGAGTACGTGCGTCTCTGCACGTATGGCGATTAATCCATATGCAGGTCTATATAAGCAGAGCTCGTTTAGTGAACCGTCAGATCGCCTAGATACGCCATCCACGCTGTTTTGACCTCCATAGAAGATCGCCACC
modifications: Synp-HV3C
notes: 4 HRE3 elements and CMV minimal promoter
inducibility after 24 hours in hypoxia (rank) (HEK293-T): highest
luciferase activity in normoxia (HEK293-T): almost no luciferase activity
relative rank of promoter strength (HEK293-T): strongest
SEAP activity in normoxia (CHO-GSK1SV cell line): almost no SEAP activity
inducibility after 24 hours in hypoxia (rank) (CHO-GSK1SV cell line): highest

B2: RTV-015: synthetic hypoxia-inducible promoter, SEQ ID NO: 81; 5 HRE1 elements spaced by 40 bp and minimal promoter MP1 (nucleic acid)
DNA: ACGTGCGATGATGCGTAGCTAGTAGTGATGATGCGTAGCTAGTAGTACGTGCGATGATGCGTAGCTAGTAGTGATGATGCGTAGCTAGTAGTACGTGCGATGATGCGTAGCTAGTAGTGATGATGCGTAGCTAGTAGTACGTGCGATGATGCGTAGCTAGTAGTGATGATGCGTAGCTAGTAGTACGTGCTTGGTACCATCCGGGCCGGCCGCTTAAGCGACGCCTATAAAAAATAGGTTGCATGCTAGGCCTAGCGCTGCCAGTCCATCTTCGCTAGCCTGTGCTGCGTCAGTCCAGCGCTGCGCTGCGTAACGGCCGCC
modifications: Synp-RTV-015
notes: 5 HRE1 elements spaced by 40 bp and minimal promoter MP1
inducibility after 24 hours in hypoxia (rank) (HEK293-T): lowest
luciferase activity in normoxia (HEK293-T): almost no luciferase activity
relative rank of promoter strength (HEK293-T): weakest
SEAP activity in normoxia (CHO-GSK1SV cell line): almost no SEAP activity
inducibility after 24 hours in hypoxia (rank) (CHO-GSK1SV cell line): lowest
